Data taken from patent US7202050.

Biological target: T1, TMR-Asp-Glu-Ser-Glu-Glu-Glu-Asp-Lys(Nε-Flsn)-COOH reporter peptide (casein kinase II substrate peptide), unphosphorylated (not fully specified)
T1 chain: DESEEEDK

B1: Human casein kinase II (CKII) (protein)
chain: MSGPVPSRARVYTDVNTHRPREYWDYESHVVEWGNQDDYQLVRKLGRGKYSEVFEAINITNNEKVVVKILKPVKKKKIKREIKILENLRGGPNIITLADIVKDPVSRTPALVFEHVNNTDFKQLYQTLTDYDIRFYMYEILKALDYCHSMGIMHRDVKPHNVMIDHEHRKLRLIDWGLAEFYHPGQEYNVRVASRYFKGPELLVDYQMYDYSLDMWSLGCMLASMIFRKEPFFHGHDNYDQLVRIAKVLGTEDLYDYIDKYNIELDPRFNDILGRHSRKRWERFVHSENQHLVSPEALDFLDKLLRYDHQSRLTAREAMEHPYFYTVVKDQARMGSSSMPGGSTPVSSANMMSGISSVPTPSPLGPLAGSPVIAAANPLGMPVPAAAGAQQ
Q: With B1 as the protein, how does the “phosphorylation of the peptide by CKII, HPLC analysis” value read?
A: Phosphorylation of the peptide by CKII was confirmed by incubation of the peptide with kinase
